From US20230174575A1 (priority 2020, published 2023)

Experiments:
[1] = test system: SARS-CoV-2; assay type: cell-based; details: concentrations ranging from 10 mg/ml to 1.25 mg/ml
[2] = test system: Vero cells; assay: Cell toxicity against Vero cells by MTT assay; details: MTT assay
Description: Cell toxicity was monitored by establishing the effect of lysozyme HCl against Vero cells (epithelial cells of monkey kidneys). The cells were seeded in 96-well plates at the concentration of 1×10^4 cells/well. 24 hours after seeding, the cells were treated with serial dilutions of lysozyme HCl or chloroquine (as control), in a final volume of 200 in triplicate. After 72 hours' incubation at 37° C. with 5% CO2, cell viability was measured by MTT assay (D'Alessandro, M. et al., Differential effects on angiogenesis of two antimalarial compounds, dihydroartemisinin and artemisone: Implications for embryotoxicity, Toxicology. 241 (2007) 66-74. Doi: 10.1016/j.tox.2007.08.084).
The data were calculated as percentage cell viability using the formula:
[(absorbance of sample−blank of cell-free sample)/mean absorbance of control of media]×100.
The cytotoxicity of ovotransferrin and chloroquine (CQ) was measured by MTT assay, similarly to the method used for lysozyme HCl.

B1: Ovotransferrin: hen egg white protein, product code 501P2001090, produced by Bioseutica BV (protein, UniProt P02789 20-705, looked up)
Ovotransferrin: APPKSVIRWCTISSPEEKKCNNLRDLTQQERISLTCVQKATYLDCIKAIANNEADAISLDGGQAFEAGLAPYKLKPIAAEVYEHTEGSTTSYYAVAVVKKGTEFTVNDLQGKTSCHTGLGRSAGWNIPIGTLLHRGAIEWEGIESGSVEQAVAKFFSASCVPGATIEQKLCRQCKGDPKTKCARNAPYSGYSGAFHCLKDGKGDVAFVKHTTVNENAPDQKDEYELLCLDGSRQPVDNYKTCNWARVAAHAVVARDDNKVEDIWSFLSKAQSDFGVDTKSDFHLFGPPGKKDPVLKDLLFKDSAIMLKRVPSLMDSQLYLGFEYYSAIQSMRKDQLTPSPRENRIQWCAVGKDEKSKCDRWSVVSNGDVECTVVDETKDCIIKIMKGEADAVALDGGLVYTAGVCGLVPVMAERYDDESQCSKTDERPASYFAVAVARKDSNVNWNNLKGKKSCHTAVGRTAGWVIPMGLIHNRTGTCNFDEYFSEGCAPGSPPNSRLCQLCQGSGGIPPEKCVASSHEKYFGYTGALRCLVEKGDVAFIQHSTVEENTGGKNKADWAKNLQMDDFELLCTDGRRANVMDYRECNLAEVPTHAVVVRPEKANKIRDLLERQEKRFGVNGSEKSKFMMFESQNKDLLFKDLTKCLFKVREGTTYKEFLGDKFYTVISSLKTCNPSDILQMCSFLEGK
In the case of B1, the “antiviral activity of ovotransferrin alone” value [1] is reported as “no antiviral activity was detected”, the “viability compared with control cells” value ([2]; 10 mg/ml) is reported as 100% and the cytotoxicity ([2]; maximum concentration used (10 mg/ml)) is reported as “non-toxic”.
